In patent US20180009871A1 (INTARCIA THERAPEUTICS, published 2018):
Where no end group is shown, it is not given here. [ ]: non-standard residue; d: D form. Aib = CC(C)(N)C(=O)O

B1: Compound A10 (peptide)
peptide: YSHGTFTSDYSKYLD[Aib]KRAQEFV[Aib]WLEDEEPSSGAPPPS-OH
modifications: N-terminus assumed
SMILES: CC(C)C[C@H](NC(=O)[C@H](Cc1ccc(O)cc1)NC(=O)[C@H](CCCCN)NC(=O)[C@H](CO)NC(=O)[C@H](Cc1ccc(O)cc1)NC(=O)[C@H](CC(=O)O)NC(=O)[C@H](CO)NC(=O)[C@@H](NC(=O)[C@H](Cc1ccccc1)NC(=O)[C@@H](NC(=O)CNC(=O)[C@H](Cc1c[nH]cn1)NC(=O)[C@H](CO)NC(=O)[C@@H](N)Cc1ccc(O)cc1)[C@@H](C)O)[C@@H](C)O)C(=O)N[C@@H](CC(=O)O)C(=O)NC(C)(C)C(=O)N[C@@H](CCCCN)C(=O)N[C@@H](CCCNC(=N)N)C(=O)N[C@@H](C)C(=O)N[C@@H](CCC(N)=O)C(=O)N[C@@H](CCC(=O)O)C(=O)N[C@@H](Cc1ccccc1)C(=O)N[C@H](C(=O)NC(C)(C)C(=O)N[C@@H](Cc1c[nH]c2ccccc12)C(=O)N[C@@H](CC(C)C)C(=O)N[C@@H](CCC(=O)O)C(=O)N[C@@H](CC(=O)O)C(=O)N[C@@H](CCC(=O)O)C(=O)N[C@@H](CCC(=O)O)C(=O)N1CCC[C@H]1C(=O)N[C@@H](CO)C(=O)N[C@@H](CO)C(=O)NCC(=O)N[C@@H](C)C(=O)N1CCC[C@H]1C(=O)N1CCC[C@H]1C(=O)N1CCC[C@H]1C(=O)N[C@@H](CO)C(=O)O)C(C)C
B2: Compound A11 (peptide)
peptide: YSHGTFTSDYSKYLD[Aib]KRAQEFV[Aib]WLEDEEEPSSGAPPPS-OH
modifications: N-terminus assumed
SMILES: CC(C)C[C@H](NC(=O)[C@H](Cc1ccc(O)cc1)NC(=O)[C@H](CCCCN)NC(=O)[C@H](CO)NC(=O)[C@H](Cc1ccc(O)cc1)NC(=O)[C@H](CC(=O)O)NC(=O)[C@H](CO)NC(=O)[C@@H](NC(=O)[C@H](Cc1ccccc1)NC(=O)[C@@H](NC(=O)CNC(=O)[C@H](Cc1c[nH]cn1)NC(=O)[C@H](CO)NC(=O)[C@@H](N)Cc1ccc(O)cc1)[C@@H](C)O)[C@@H](C)O)C(=O)N[C@@H](CC(=O)O)C(=O)NC(C)(C)C(=O)N[C@@H](CCCCN)C(=O)N[C@@H](CCCNC(=N)N)C(=O)N[C@@H](C)C(=O)N[C@@H](CCC(N)=O)C(=O)N[C@@H](CCC(=O)O)C(=O)N[C@@H](Cc1ccccc1)C(=O)N[C@H](C(=O)NC(C)(C)C(=O)N[C@@H](Cc1c[nH]c2ccccc12)C(=O)N[C@@H](CC(C)C)C(=O)N[C@@H](CCC(=O)O)C(=O)N[C@@H](CC(=O)O)C(=O)N[C@@H](CCC(=O)O)C(=O)N[C@@H](CCC(=O)O)C(=O)N[C@@H](CCC(=O)O)C(=O)N1CCC[C@H]1C(=O)N[C@@H](CO)C(=O)N[C@@H](CO)C(=O)NCC(=O)N[C@@H](C)C(=O)N1CCC[C@H]1C(=O)N1CCC[C@H]1C(=O)N1CCC[C@H]1C(=O)N[C@@H](CO)C(=O)O)C(C)C
B3: Compound A9 (peptide)
peptide: YSHGTFTSDYSKYLD[Aib]KRAQEFV[Aib]WLEEEPSSGAPPPS-OH
modifications: N-terminus assumed
SMILES: CC(C)C[C@H](NC(=O)[C@H](Cc1ccc(O)cc1)NC(=O)[C@H](CCCCN)NC(=O)[C@H](CO)NC(=O)[C@H](Cc1ccc(O)cc1)NC(=O)[C@H](CC(=O)O)NC(=O)[C@H](CO)NC(=O)[C@@H](NC(=O)[C@H](Cc1ccccc1)NC(=O)[C@@H](NC(=O)CNC(=O)[C@H](Cc1c[nH]cn1)NC(=O)[C@H](CO)NC(=O)[C@@H](N)Cc1ccc(O)cc1)[C@@H](C)O)[C@@H](C)O)C(=O)N[C@@H](CC(=O)O)C(=O)NC(C)(C)C(=O)N[C@@H](CCCCN)C(=O)N[C@@H](CCCNC(=N)N)C(=O)N[C@@H](C)C(=O)N[C@@H](CCC(N)=O)C(=O)N[C@@H](CCC(=O)O)C(=O)N[C@@H](Cc1ccccc1)C(=O)N[C@H](C(=O)NC(C)(C)C(=O)N[C@@H](Cc1c[nH]c2ccccc12)C(=O)N[C@@H](CC(C)C)C(=O)N[C@@H](CCC(=O)O)C(=O)N[C@@H](CCC(=O)O)C(=O)N[C@@H](CCC(=O)O)C(=O)N1CCC[C@H]1C(=O)N[C@@H](CO)C(=O)N[C@@H](CO)C(=O)NCC(=O)N[C@@H](C)C(=O)N1CCC[C@H]1C(=O)N1CCC[C@H]1C(=O)N1CCC[C@H]1C(=O)N[C@@H](CO)C(=O)O)C(C)C
B4: Compound A13 (peptide)
peptide: YSHGTFTSDYSKYLD[Aib]KRAQEFV[Aib]WLEDESGAPPPS-OH
modifications: N-terminus assumed
SMILES: CC(C)C[C@H](NC(=O)[C@H](Cc1ccc(O)cc1)NC(=O)[C@H](CCCCN)NC(=O)[C@H](CO)NC(=O)[C@H](Cc1ccc(O)cc1)NC(=O)[C@H](CC(=O)O)NC(=O)[C@H](CO)NC(=O)[C@@H](NC(=O)[C@H](Cc1ccccc1)NC(=O)[C@@H](NC(=O)CNC(=O)[C@H](Cc1c[nH]cn1)NC(=O)[C@H](CO)NC(=O)[C@@H](N)Cc1ccc(O)cc1)[C@@H](C)O)[C@@H](C)O)C(=O)N[C@@H](CC(=O)O)C(=O)NC(C)(C)C(=O)N[C@@H](CCCCN)C(=O)N[C@@H](CCCNC(=N)N)C(=O)N[C@@H](C)C(=O)N[C@@H](CCC(N)=O)C(=O)N[C@@H](CCC(=O)O)C(=O)N[C@@H](Cc1ccccc1)C(=O)N[C@H](C(=O)NC(C)(C)C(=O)N[C@@H](Cc1c[nH]c2ccccc12)C(=O)N[C@@H](CC(C)C)C(=O)N[C@@H](CCC(=O)O)C(=O)N[C@@H](CC(=O)O)C(=O)N[C@@H](CCC(=O)O)C(=O)N[C@@H](CO)C(=O)NCC(=O)N[C@@H](C)C(=O)N1CCC[C@H]1C(=O)N1CCC[C@H]1C(=O)N1CCC[C@H]1C(=O)N[C@@H](CO)C(=O)O)C(C)C
B5: Compound A8 (peptide)
peptide: YSHGTFTSDYSKYLD[Aib]KRAQEFV[Aib]WLEDEPSSGAPPPS-NH2
modifications: N-terminus assumed
SMILES: CC(C)C[C@H](NC(=O)[C@H](Cc1ccc(O)cc1)NC(=O)[C@H](CCCCN)NC(=O)[C@H](CO)NC(=O)[C@H](Cc1ccc(O)cc1)NC(=O)[C@H](CC(=O)O)NC(=O)[C@H](CO)NC(=O)[C@@H](NC(=O)[C@H](Cc1ccccc1)NC(=O)[C@@H](NC(=O)CNC(=O)[C@H](Cc1c[nH]cn1)NC(=O)[C@H](CO)NC(=O)[C@@H](N)Cc1ccc(O)cc1)[C@@H](C)O)[C@@H](C)O)C(=O)N[C@@H](CC(=O)O)C(=O)NC(C)(C)C(=O)N[C@@H](CCCCN)C(=O)N[C@@H](CCCNC(=N)N)C(=O)N[C@@H](C)C(=O)N[C@@H](CCC(N)=O)C(=O)N[C@@H](CCC(=O)O)C(=O)N[C@@H](Cc1ccccc1)C(=O)N[C@H](C(=O)NC(C)(C)C(=O)N[C@@H](Cc1c[nH]c2ccccc12)C(=O)N[C@@H](CC(C)C)C(=O)N[C@@H](CCC(=O)O)C(=O)N[C@@H](CC(=O)O)C(=O)N[C@@H](CCC(=O)O)C(=O)N1CCC[C@H]1C(=O)N[C@@H](CO)C(=O)N[C@@H](CO)C(=O)NCC(=O)N[C@@H](C)C(=O)N1CCC[C@H]1C(=O)N1CCC[C@H]1C(=O)N1CCC[C@H]1C(=O)N[C@@H](CO)C(N)=O)C(C)C
B6: Compound A7 (peptide)
peptide: YSHGTFTSDYSKYLD[Aib]ARAQEFV[Aib]WLEDEPSSGAPPPS-OH
modifications: N-terminus assumed
SMILES: CC(C)C[C@H](NC(=O)[C@H](Cc1ccc(O)cc1)NC(=O)[C@H](CCCCN)NC(=O)[C@H](CO)NC(=O)[C@H](Cc1ccc(O)cc1)NC(=O)[C@H](CC(=O)O)NC(=O)[C@H](CO)NC(=O)[C@@H](NC(=O)[C@H](Cc1ccccc1)NC(=O)[C@@H](NC(=O)CNC(=O)[C@H](Cc1c[nH]cn1)NC(=O)[C@H](CO)NC(=O)[C@@H](N)Cc1ccc(O)cc1)[C@@H](C)O)[C@@H](C)O)C(=O)N[C@@H](CC(=O)O)C(=O)NC(C)(C)C(=O)N[C@@H](C)C(=O)N[C@@H](CCCNC(=N)N)C(=O)N[C@@H](C)C(=O)N[C@@H](CCC(N)=O)C(=O)N[C@@H](CCC(=O)O)C(=O)N[C@@H](Cc1ccccc1)C(=O)N[C@H](C(=O)NC(C)(C)C(=O)N[C@@H](Cc1c[nH]c2ccccc12)C(=O)N[C@@H](CC(C)C)C(=O)N[C@@H](CCC(=O)O)C(=O)N[C@@H](CC(=O)O)C(=O)N[C@@H](CCC(=O)O)C(=O)N1CCC[C@H]1C(=O)N[C@@H](CO)C(=O)N[C@@H](CO)C(=O)NCC(=O)N[C@@H](C)C(=O)N1CCC[C@H]1C(=O)N1CCC[C@H]1C(=O)N1CCC[C@H]1C(=O)N[C@@H](CO)C(=O)O)C(C)C
B7: Compound A12 (peptide)
peptide: YSHGTFTSDYSKYLD[Aib]KRAQEFV[Aib]WLEDEGAPPPS-OH
modifications: N-terminus assumed
SMILES: CC(C)C[C@H](NC(=O)[C@H](Cc1ccc(O)cc1)NC(=O)[C@H](CCCCN)NC(=O)[C@H](CO)NC(=O)[C@H](Cc1ccc(O)cc1)NC(=O)[C@H](CC(=O)O)NC(=O)[C@H](CO)NC(=O)[C@@H](NC(=O)[C@H](Cc1ccccc1)NC(=O)[C@@H](NC(=O)CNC(=O)[C@H](Cc1c[nH]cn1)NC(=O)[C@H](CO)NC(=O)[C@@H](N)Cc1ccc(O)cc1)[C@@H](C)O)[C@@H](C)O)C(=O)N[C@@H](CC(=O)O)C(=O)NC(C)(C)C(=O)N[C@@H](CCCCN)C(=O)N[C@@H](CCCNC(=N)N)C(=O)N[C@@H](C)C(=O)N[C@@H](CCC(N)=O)C(=O)N[C@@H](CCC(=O)O)C(=O)N[C@@H](Cc1ccccc1)C(=O)N[C@H](C(=O)NC(C)(C)C(=O)N[C@@H](Cc1c[nH]c2ccccc12)C(=O)N[C@@H](CC(C)C)C(=O)N[C@@H](CCC(=O)O)C(=O)N[C@@H](CC(=O)O)C(=O)N[C@@H](CCC(=O)O)C(=O)NCC(=O)N[C@@H](C)C(=O)N1CCC[C@H]1C(=O)N1CCC[C@H]1C(=O)N1CCC[C@H]1C(=O)N[C@@H](CO)C(=O)O)C(C)C

Assays:
[1] = molecular target: human glucagon receptor (GCGR) (human, UniProt P47871 26-477); assay: cell-based or functional assay
[2] = molecular target: human GLP-1 receptor (GLP-1R) (human, UniProt P43220 24-463); assay: cell-based or functional assay
Sequence of human GLP-1 receptor (GLP-1R) (P43220 24-463): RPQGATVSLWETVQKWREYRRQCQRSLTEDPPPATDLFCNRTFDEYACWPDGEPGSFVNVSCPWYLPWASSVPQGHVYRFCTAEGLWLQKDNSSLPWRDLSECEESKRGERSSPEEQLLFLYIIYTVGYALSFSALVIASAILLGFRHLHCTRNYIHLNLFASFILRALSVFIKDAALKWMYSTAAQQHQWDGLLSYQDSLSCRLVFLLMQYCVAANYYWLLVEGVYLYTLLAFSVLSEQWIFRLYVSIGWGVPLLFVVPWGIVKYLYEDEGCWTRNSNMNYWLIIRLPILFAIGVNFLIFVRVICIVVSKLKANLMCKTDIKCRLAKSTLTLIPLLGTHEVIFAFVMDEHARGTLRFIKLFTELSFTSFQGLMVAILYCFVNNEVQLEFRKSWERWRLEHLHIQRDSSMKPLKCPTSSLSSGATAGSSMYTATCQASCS

Binder | hGCGR pEC50 (cAMP) [1] [pEC50] | hGLP1 pEC50 (cAMP) [2] [pEC50]
B1 | 11.3 | < 9
B2 | 11.2 | < 9
B3 | 13 | < 9
B4 | 12.3 | < 9
B5 | 12.3 | < 9
B6 | 11.9 | < 9
B7 | 13.2 | < 9
